{
  "source": "paper PMC8843702",
  "about": "(The Journal of Clinical Investigation, 2022)",
  "binders": {"B1": {"name": "P14-44 (antibody, V domains shown)", "VH": "QVQLVQSGAEVKKPGASVKVSCKASGYIFTSYSMHWVRQAPGQGLEWMGTIKPSDDSTNYAQKFQGRVSMTRDTSTSTVYMELSSLRYEDTAVYYCAREARGYYDRSGYYHPGYFDYWGQGTLVTVSS", "VL": "QSVLTQPASVSGSPGQSITISCTGTSSDVGGYNFVSWYQQHPGKAPKLMIYEVSDRPSGVSSRFSGSKSGNTASLTISGLQAEDEADYYCFSYTTSTTWVFGGGTKLTVL", "notes": "also called P14-44 IgG; source: HEK293F, transfected, purified (Protein A)"}},
  "key": {"[1]": {"target": "SARS-CoV-2 S protein (SARS-CoV-2, Wuhan-Hu-1 reference, UniProt P0DTC2)", "experiment": "SPR", "conditions": "both partners purified"}, "[2]": {"target": "SARS-CoV-1 S protein (SARS-CoV-1, strain not named (P59594 …, UniProt P59594))", "experiment": "SPR", "conditions": "both partners purified"}},
  "data": [
    {"binder": "B1", "values": [
      {"measurement": "Kd", "setting": "[1]", "value": 0.55, "unit": "nM"},
      {"measurement": "Kd", "setting": "[2]", "value": 4.3, "unit": "nM"}
    ]}
  ]
}
